Measurements taken from publication PMC11524583, “Neurons enhance blood–brain barrier function via upregulating claudin-5 and VE-cadherin expression due to glial cell line-derived neurotrophic factor secretion” (eLife, 2024).
Where “and” joins values, the source holds several entries; their conditions need not be identical. Equal entries are not always repeated.

How the values were obtained:
Type in all cases: cell-based, Homo sapiens
p-JNK/JNK = assay: Western blot of p-JNK/JNK in hCMEC/D3 cells
Method: (§1) Whole-cell and tissue lysates, nucleoprotein, and cytoplasmic protein were prepared using RIPA Lysis Buffer (Beyotime, Shanghai, China) as the described method ([Wu et al., 2021]). Proteins were separated through sodium dodecyl sulfate–polyacrylamide gel electrophoresis and transferred onto nitrocellulose or polyvinylidene difluoride membranes. The membranes were blocked with 5% skim milk and incubated with corresponding primary antibodies at 4°C overnight. After being washed with Tris-buffered saline Tween buffer, the membranes were incubated with secondary antibodies (Cell Signaling Technology, MA, USA) at 1:3000 dilution: Anti-mouse IgG, HRP-linked Antibody (#7076), Anti-rabbit IgG, HRP-linked Antibody (#7074). Protein levels were visualized using a highly sensitive ECL western blotting substrate and a gel imaging system (Tanon Science & Technology, Shanghai, China).

p-ERK/ERK = assay: Western blot of p-ERK/ERK in hCMEC/D3 cells
Method: as §1
Exogenous and endogenous GDNF in the medium was neutralized with anti-GDNF antibody (#AF-212-NA, R&D system, Minneapolis, MN, USA). 0.25, 0.5, and 1.0 μg/ml anti-GDNF antibody was added into the US-CM or medium containing 200 pg/ml GDNF, and then the medium was preincubated at 4°C for 1 hr. The hCMEC/D3 cells were incubated with 200 pg/ml GDNF or US-CM containing anti-GDNF antibody or not for 6 days, and then cell lysate was collected for western blot. The medium was replaced every 24 hr.

VE-cadherin = assay: Western blot of VE-cadherin expression in hCMEC/D3 cells
Procedure, shortened: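 hCMEC/D3 cells were cultured 6 days in 200 pg/ml GDNF or U251/SH-SY5Y co-culture conditioned medium, ±0.25–1.0 μg/ml anti-GDNF antibody, with medium changed every 24 hr. Alternatively, cells got 10 nM FOXO1, ETS1 or CDH5 siRNA for 12 hr, then GDNF medium for 72 hr. RIPA lysates were immunoblotted with ECL detection.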

[1] = relative to Con (mean 1.000), mean of 4, Figure 3C
[2] = relative to Con (mean 1.000), single replicates, Figure 3C
[3] = relative to Con (mean 1.000), mean of 4, Figure 3B
[4] = relative to Con (mean 1.000), single replicates, Figure 3B

B1: GDNF: glial cell line-derived neurotrophic factor, recombinant protein (R&D system) (protein, UniProt P39905 78-211, looked up)
Glial cell line-derived …: SPDKQMAVLPRRERNRQAAAANPENSRGKGRRGQRGKNRGCVLTAIHLNVTDLGLGYETKEELIFRYCSGSCDAAETTYDKILKNLSRNRRLVSDKVGQACCRPIAFDDDLSFLDDNLVYHILRKHSAKRCGCI
phosphorylation of JNK (p-JNK/JNK; hCMEC/D3 cells, 200 pg/ml GDNF): did not stimulate | p-JNK/JNK Relative Expression Mean (p-JNK/JNK; [1]): 1.172 | p-JNK/JNK Relative Expression (p-JNK/JNK; [2]): 1.036 and 1.122 and 1.219 and 1.311 | phosphorylation of ERK (p-ERK) (p-ERK/ERK; hCMEC/D3 cells, 200 pg/ml GDNF or US-CM): accompanied by the phosphorylation | p-ERK/ERK Relative Expression, Mean (p-ERK/ERK; mean of 4, relative to Con, GDNF alone, Figure 3E): 1.352 | p-ERK/ERK Relative Expression, Mean (p-ERK/ERK; [3]): 1.377 | p-ERK/ERK Relative Expression (p-ERK/ERK; [4]): 1.512 and 1.333 and 1.310 and 1.351 | p-ERK/ERK Relative Expression (p-ERK/ERK; single replicate, relative to Con, GDNF alone, Figure 3E): 1.315 and 1.511 and 1.307 and 1.277 | VE-cadherin/β-actin Relative Expression, Mean (VE-cadherin; 50pg, Figure 2D, Con = 1.000): 1.451 | VE-cadherin/β-actin Relative Expression (VE-cadherin; 50pg, Figure 2D, relative to Con, single replicates): 1.462 and 1.352 and 1.497 and 1.494 | VE-cadherin/β-actin Relative Expression, Mean (VE-cadherin; 100pg, Figure 2D, Con = 1.000): 1.603 | VE-cadherin/β-actin Relative Expression (VE-cadherin; 100pg, Figure 2D, relative to Con, single replicates): 1.56 and 1.556 and 1.562 and 1.733 | VE-cadherin/β-actin Relative Expression, Mean (VE-cadherin; 200pg, Figure 2D, Con = 1.000): 1.795 | VE-cadherin/β-actin Relative Expression (VE-cadherin; 200pg, Figure 2D, relative to Con, single replicates): 1.847 and 2.268 and 1.408 and 1.657 | VE-cadherin/β-actin Mean (VE-cadherin; Figure 2K, hCMEC/D3 cells, group mean, relative to Con): 1.787 | VE-cadherin/β-actin Relative Expression (VE-cadherin; Figure 2K, hCMEC/D3 cells, individual replicates, relative to Con): 2.089 and 1.381 and 1.914 and 1.765 | VE-cadherin/β-actin Relative Expression, Mean (VE-cadherin; Figure 5G, hCMEC/D3 cells, group mean, NC = 1.000): 1.370 | VE-cadherin/β-actin Relative Expression (VE-cadherin; Figure 5G, hCMEC/D3 cells, single replicates, relative to NC group): 1.534 and 1.457 and 1.274 and 1.216 | VE-cadherin expression (VE-cadherin; hCMEC/D3 cells incubated with conditioned medium or neurotrophic factor vs normal medium): induced the expression of claudin-5 and VE-cadherin in a concentration-dependent manner | VE-cadherin/β-actin Relative Expression, Mean (VE-cadherin; relative to Con (mean 1.000), mean of 4, Figure 3A): 1.424 | VE-cadherin/Tubulin Relative Expression Mean (VE-cadherin; [3]): 1.899 | VE-cadherin/β-actin Relative Expression, Mean (VE-cadherin; [1]): 1.775 | VE-cadherin/Tubulin Relative Expression Mean (VE-cadherin; relative to Con (mean 1.000), mean of 4, Figure 3D): 1.478 | VE-cadherin/β-actin Relative Expression (VE-cadherin; relative to Con (mean 1.000), single replicates, Figure 3A): 1.437 and 1.554 and 1.424 and 1.283 | VE-cadherin/Tubulin Relative Expression (VE-cadherin; [4]): 1.415 and 1.823 and 2.246 and 2.110 | VE-cadherin/β-actin Relative Expression (VE-cadherin; [2]): 1.887 and 1.656 and 1.568 and 1.989 | VE-cadherin/Tubulin Relative Expression (VE-cadherin; relative to Con (mean 1.000), single replicates, Figure 3D): 1.343 and 1.350 and 1.787 and 1.430
